The source of these data is paper PMC10686824, “Bacterial cGAS senses a viral RNA to initiate immunity”.

The data set addresses T1, His6-MBP-Ssc-CdnE03 (UniProt P0DXA6 1-324).
T1 sequence: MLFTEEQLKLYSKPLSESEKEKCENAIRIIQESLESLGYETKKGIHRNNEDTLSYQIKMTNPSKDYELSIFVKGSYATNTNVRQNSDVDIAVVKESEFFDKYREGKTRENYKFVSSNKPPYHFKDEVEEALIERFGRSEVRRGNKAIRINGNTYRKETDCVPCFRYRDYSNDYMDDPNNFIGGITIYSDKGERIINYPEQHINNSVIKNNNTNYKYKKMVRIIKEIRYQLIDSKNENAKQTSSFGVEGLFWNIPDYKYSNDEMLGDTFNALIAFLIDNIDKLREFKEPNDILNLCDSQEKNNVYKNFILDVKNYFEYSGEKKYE
In words: pull-down; total RNA of infected cells; EMSA: 50 mM CAPSO pH 9.4, 50 mM KCl, 5 mM Mg acetate, 1 mM DTT, 4 C 25 min, 1 uM RNA, 2% agarose in 1x TB; pull-down on cobalt resin, buffer not given in material. The settings on record: protein: recombinant, tags: His6-MBP. For orientation: Mobility shift assays separate free from complexed probe on a gel.

B1: 200-nt RNA from 80alpha-vir(cabRNA57) (structured_RNA)
RNA: AGAGGAGAACCUCAAGAGGCUUACAGUAAGAAAUAUGACCAUUUAAACGAUGAAGUGGAAAAAGAGGUUACUUACACAAUCACACCAACUUUUGAAGAGCGUCAGAGAUCUAUUGACCACAUACUAAAAGUUCAUGGUGCGUAUAUCGACAAAAAAGAAAUUACUCAGAAGAAUAUUGAGAUUAAUAUUGGUGAGUACGA
Turning to B1, the binding result is “binds”. UUCCGGAAGAUGAUUAGUCAUGUAUGAAAUACUUGAUCUAAAAAAUAAA (structured_RNA) [cabRNA PhiJ4 (49 nt)]: the binding result (hairpin (predicted)) was “binds”.

B2: 80-nt RNA from 80alpha-vir(cabRNA100) (structured_RNA)
RNA: AUGGUGCGUAUAUCGACAAAAAAGAAAUUACUCAGAAGAAUAUUGAGAUUAAUAUUGGUGAGUACGAUGACGAAAGUUAA
B2: the binding result is reported as “binds”. As for GAAUGUUAUGGCAAUGCUACUAAGUCAGCUGUGC (structured_RNA) [cabRNA PhiJ1/2 (34 nt)], the binding result (hairpin (predicted)) was “binds”.
